The source of these data is publication PMC8348300.

In series [1] the target is T1, human alpha-thrombin (Homo sapiens, UniProt P00734;P00734 328-363;364-622). Put plainly: SPR; 10 mM KCl; SPR (OpenSPR, immobilized thrombin): PBS, 0.005% Tween 20, 10 mM KCl, pH 7.4; TBA 1-16 uM (1-8 uM per Results), annealed 95 C 5 min then cooled to room temperat.
Series [2] addresses T1, human alpha-thrombin. As to the kind of experiment: SPR; 10 mM KCl; text of 3.2 gives 97.5 nM; SPR (OpenSPR, immobilized thrombin): PBS, 0.005% Tween 20, 10 mM KCl, pH 7.4; TBA 1-16 uM (1-8 uM per Results), annealed 95 C 5 min then cooled to room temperat.
In series [3] the target is T1, human alpha-thrombin. Put plainly: SPR; 10 mM KCl; text of 3.2 gives 99.8 nM; SPR (OpenSPR, immobilized thrombin): PBS, 0.005% Tween 20, 10 mM KCl, pH 7.4; TBA 1-16 uM (1-8 uM per Results), annealed 95 C 5 min then cooled to room temperat. For orientation: In SPR one partner is held on a chip, and binding of the other changes the refractive index at the surface.
For series [4], the target named is T1, human alpha-thrombin. As to the kind of experiment: SPR; 10 mM KCl; text of 3.2 gives 99 nM; SPR (OpenSPR, immobilized thrombin): PBS, 0.005% Tween 20, 10 mM KCl, pH 7.4; TBA 1-16 uM (1-8 uM per Results), annealed 95 C 5 min then cooled to room temperat.

As for GGTTGGTGTGGTTGG (structured_DNA, 5' Long Trebler dendrimer (three arms with terminal hydroxyls)) [5LTG], the Kd with human alpha-thrombin [1] was 99.6 nM.
For the molecule GGTTGGTGTGGTTGG (structured_DNA, T13: C5 NHS-carboxy-dT) [13NHT], in the series with human alpha-thrombin [2], the equilibrium dissociation constant (Kd) amounted to 99.7 nM.
GGTTGGTGTGGTTGG (structured_DNA, T4 and T13: C5 NHS-carboxy-dT) [413NHT]: the dissociation constant Kd with human alpha-thrombin [3] is 102 nM.
For GGTTGGTGTGGTTGG (structured_DNA) [TBA (native)], binding with human alpha-thrombin [1] was put at a Kd of 99.8 nM.
In the series with human alpha-thrombin [4], GGTTGGTGTGGTTGG (structured_DNA, T4: C5 NHS-carboxy-dT) [4NHT] came in with a Kd of 102 nM. This counts as sub-micromolar.
For GGTTGGTGTGGTTGG (structured_DNA, 5' Trebler dendrimer (three arms with terminal hydroxyls)) [5TG], in the series with human alpha-thrombin [1], binding was characterised by a dissociation constant (Kd) of 102 nM.

In general, Kd refers to the free concentration of one partner at which half of the binding sites on the other are occupied at equilibrium, for simple one-to-one binding. The low end stands for a tighter complex, the high end for a looser complex.
